Assay results published in paper PMC2935179.
Read-outs that look alike come from different tables or passages of the source.

Key:
[1] = target: T1, Δ22 (FLI portion of EWS/FLI);FLI ETS domain (;, UniProt Q01543;Q01543 220-452;270-371, |); assay: EMSA
T1 sequence 1: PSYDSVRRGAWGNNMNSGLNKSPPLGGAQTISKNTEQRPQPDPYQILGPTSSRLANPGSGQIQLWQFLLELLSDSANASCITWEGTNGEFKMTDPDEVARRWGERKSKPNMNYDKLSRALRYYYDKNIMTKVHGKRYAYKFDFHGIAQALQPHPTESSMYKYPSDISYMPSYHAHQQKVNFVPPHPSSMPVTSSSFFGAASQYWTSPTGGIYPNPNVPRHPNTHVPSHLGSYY
T1 sequence 2: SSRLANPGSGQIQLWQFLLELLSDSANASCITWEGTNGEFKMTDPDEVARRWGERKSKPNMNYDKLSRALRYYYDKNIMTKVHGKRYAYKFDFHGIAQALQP

[2] = target: T2, Δ22 (FLI portion of EWS/FLI) (UniProt Q01543 220-452); assay: fluorescence polarization stoichiometry
T2 sequence: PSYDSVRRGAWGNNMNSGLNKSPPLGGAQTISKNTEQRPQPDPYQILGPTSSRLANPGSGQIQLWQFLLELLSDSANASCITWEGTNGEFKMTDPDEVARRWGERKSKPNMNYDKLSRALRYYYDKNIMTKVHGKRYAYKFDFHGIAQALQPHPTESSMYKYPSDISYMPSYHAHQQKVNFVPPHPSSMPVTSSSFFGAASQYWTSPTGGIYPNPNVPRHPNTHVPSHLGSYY

[3] = target: T1, Δ22 (FLI portion of EWS/FLI);FLI ETS …; assay: EMSA; remark: listed apart in the source
ETS1 = target: T3, ETS1 (UniProt P14921 1-441); assay: EMSA
T3 sequence: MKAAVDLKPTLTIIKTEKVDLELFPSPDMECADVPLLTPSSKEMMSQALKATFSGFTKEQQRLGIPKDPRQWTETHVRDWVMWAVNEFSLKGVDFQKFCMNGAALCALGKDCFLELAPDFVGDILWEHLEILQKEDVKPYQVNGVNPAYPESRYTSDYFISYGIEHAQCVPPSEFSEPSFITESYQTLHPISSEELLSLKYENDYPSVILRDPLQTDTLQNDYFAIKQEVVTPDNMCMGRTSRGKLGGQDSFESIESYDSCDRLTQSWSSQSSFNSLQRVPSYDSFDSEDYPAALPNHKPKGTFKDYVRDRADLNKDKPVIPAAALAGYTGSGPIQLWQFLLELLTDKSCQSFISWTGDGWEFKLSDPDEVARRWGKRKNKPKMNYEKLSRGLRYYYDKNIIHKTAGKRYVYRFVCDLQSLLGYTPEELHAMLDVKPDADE

ELF1 = ELF1 (UniProt P32519 1-619); assay: EMSA
ELF1, sequence (P32519 whole entry): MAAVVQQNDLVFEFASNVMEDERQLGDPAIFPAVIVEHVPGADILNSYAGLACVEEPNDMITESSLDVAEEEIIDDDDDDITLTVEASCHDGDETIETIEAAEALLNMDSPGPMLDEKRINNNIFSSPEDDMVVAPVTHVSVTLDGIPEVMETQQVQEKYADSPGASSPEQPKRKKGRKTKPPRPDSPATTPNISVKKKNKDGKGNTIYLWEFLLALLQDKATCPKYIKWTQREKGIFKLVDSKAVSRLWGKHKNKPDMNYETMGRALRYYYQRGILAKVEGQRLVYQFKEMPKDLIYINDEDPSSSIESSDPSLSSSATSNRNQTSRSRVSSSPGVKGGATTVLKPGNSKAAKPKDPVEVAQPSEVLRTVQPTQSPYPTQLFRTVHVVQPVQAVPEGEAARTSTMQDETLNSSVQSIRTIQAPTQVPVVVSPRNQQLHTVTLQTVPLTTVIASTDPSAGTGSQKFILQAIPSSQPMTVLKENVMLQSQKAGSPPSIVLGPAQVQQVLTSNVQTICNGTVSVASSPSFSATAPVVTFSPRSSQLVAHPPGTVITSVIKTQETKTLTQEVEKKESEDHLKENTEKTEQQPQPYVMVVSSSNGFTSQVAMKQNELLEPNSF

B1: 6 GGAA motifs (dsDNA)
DNA 1: TGCAGGAAGGAAGGAAGGAAGGAAGGAAAGCT
DNA 2: AGCTTTCCTTCCTTCCTTCCTTCCTTCCTGCA
- binding result [1]: binds
- binding result [2]: binds

B2: 5 GGAA motifs (dsDNA)
DNA 1: TGCAGGAAGGAAGGAAGGAAGGAAAGCT
DNA 2: AGCTTTCCTTCCTTCCTTCCTTCCTGCA
- binding result [1]: binds
- binding result [2]: binds

B3: 4 GGAA motifs (dsDNA)
DNA 1: TGCAGGAAGGAAGGAAGGAAAGCT
DNA 2: AGCTTTCCTTCCTTCCTTCCTGCA
- binding result [3]: binds

B4: 7 GGAA motifs (dsDNA)
DNA 1: TGCAGGAAGGAAGGAAGGAAGGAAGGAAGGAAAGCT
DNA 2: AGCTTTCCTTCCTTCCTTCCTTCCTTCCTTCCTGCA
- binding result (ETS1): binds
- binding result [1]: binds
- binding result (ELF1): binds
- binding result [2]: binds
